In the supplement of paper PMC5998384:

Key:
[1] = tested on: HeLa Kyoto; test: solubility in G1/S (NP-40 vs SDS abundance) (log2 ratio); higher = more soluble; conditions: cell cycle stage: G1/S
[2] = tested on: HeLa Kyoto; test: melting temperature (median over replicates), in situ; higher = more thermally stable
[3] = tested on: HeLa Kyoto; test: solubility change mitosis vs G1/S (difference of NP-40 vs SDS log2 ratios) (log2 ratio difference); higher = more soluble in mitosis
[4] = tested on: HeLa Kyoto; test: thermal stability score vs G1/S (z-score of summed log2 fold changes over temperatures); higher = more thermally stable than in G1/S
[5] = cell cycle stage: early G1 (4.5 h after nocodazole release)
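Throughout, for melting temperature (median over replicates), in situ: HeLa Kyoto cells synchronized by double thymidine or nocodazole block, proteins quantified by TMT10plex mass spectrometry, three independent biological replicates.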
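Throughout, for solubility change mitosis vs G1/S (difference of NP-40 vs SDS log2 ratios): synchronized HeLa Kyoto cells (double thymidine block for G1/S, nocodazole release for mitosis), protein amounts in NP-40 versus SDS lysates quantified by mass spectrometry, three biological replicates.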
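Throughout, for solubility in G1/S (NP-40 vs SDS abundance): HeLa Kyoto cells arrested at G1/S by double thymidine block, proteins quantified by TMT10plex mass spectrometry in mild NP-40 versus SDS extracts, three biological replicates.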
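Throughout, for thermal stability score vs G1/S (z-score of summed log2 fold changes over temperatures): synchronized HeLa Kyoto cells, proteins quantified by TMT10plex mass spectrometry, three biological replicates, mitosis taken 0.5 h after nocodazole release, G1/S directly after double thymidine block.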

| Sequence | solubility in G1/S (log2) [1] | melting temperature ([2]; cell cycle stage: G1/S) | melting temperature ([2]; cell cycle stage: mitosis) | solubility change mitosis (log2) [3] | thermal stability score [4, 5] | thermal stability score ([4]; cell cycle stage: mitosis) |
| --- | --- | --- | --- | --- | --- | --- |
| MSLKNEPRVNTSALQKIAADMSNIIENLDTRELHFEGEEVDYDVSPSDPKIQEVYIPFSAIYNTQGFKEPNIQTYLSGCPIKAQVLEVERFTSTTRVPSINLYTIELTHGEFKWQVKRKFKHFQEFHRELLKYKAFIRIPIPTRRHTFRRQNVREEPREMPSLPRSSENMIREEQFLGRRKQLEDYLTKILKMPMYRNYHATTEFLDISQLSFIHDLGPKGIEGMIMKRSGGHRIPGLNCCGQGRACYRWSKRWLIVKDSFLLYMKPDSGAIAFVLLVDKEFKIKVGKKETETKYGIRIDNLSRTLILKCNSYRHARWWGGAIEEFIQKHGTNFLKDHRFGSYAAIQENALAKWYVNAKGYFEDVANAMEEANEEIFITDWWLSPEIFLKRPVVEGNRWRLDCILKRKAQQGVRIFIMLYKEVELALGINSEYTKRTLMRLHPNIKVMRHPDHVSSTVYLWAHHEKLVIIDQSVAFVGGIDLAYGRWDDNEHRLTDVGSVKRVTSGPSLGSLPPAAMESMESLRLKDKNEPVQNLPIQKSIDDVDSKLKGIGKPRKFSKFSLYKQLHRHHLHDADSISSIDSTSSYFNHYRSHHNLIHGLKPHFKLFHPSSESEQGLTRPHADTGSIRSLQTGVGELHGETRFWHGKDYCNFVFKDWVQLDKPFADFIDRYSTPRMPWHDIASAVHGKAARDVARHFIQRWNFTKIMKSKYRSLSYPFLLPKSQTTAHELRYQVPGSVHANVQLLRSAADWSAGIKYHEESIHAAYVHVIENSRHYIYIENQFFISCADDKVVFNKIGDAIAQRILKAHRENQKYRVYVVIPLLPGFEGDISTGGGNALQAIMHFNYRTMCRGENSILGQLKAELGNQWINYISFCGLRTHAELEGNLVTELIYVHSKLLIADDNTVIIGSANINDRSMLGKRDSEMAVIVQDTETVPSVMDGKEYQAGRFARGLRLQCFRVVLGYLDDPSEDIQDPVSDKFFKEVWVSTAARNATIYDKVFRCLPNDEVHNLIQLRDFINKPVLAKEDPIRAEEELKKIRGFLVQFPFYFLSEESLLPSVGTKEAIVPMEVWT [PLD1] | -0.336 | 51.6 °C | 51.7 °C | -0.0809 | -0.632 | -0.457 |
| MSLLFSRCNSIVTVKKNKRHMAEVNASPLKHFVTAKKKINGIFEQLGAYIQESATFLEDTYRNAELDPVTTEEQVLDVKGYLSKVRGISEVLARRHMKVAFFGRTSNGKSTVINAMLWDKVLPSGIGHTTNCFLRVEGTDGHEAFLLTEGSEEKRSAKTVNQLAHALHQDKQLHAGSLVSVMWPNSKCPLLKDDLVLMDSPGIDVTTELDSWIDKFCLDADVFVLVANSESTLMQTEKHFFHKVSERLSRPNIFILNNRWDASASEPEYMEEVRRQHMERCTSFLVDELGVVDRSQAGDRIFFVSAKEVLNARIQKAQGMPEGGGALAEGFQVRMFEFQNFERRFEECISQSAVKTKFEQHTVRAKQIAEAVRLIMDSLHMAAREQQVYCEEMREERQDRLKFIDKQLELLAQDYKLRIKQITEEVERQVSTAMAEEIRRLSVLVDDYQMDFHPSPVVLKVYKNELHRHIEEGLGRNMSDRCSTAITNSLQTMQQDMIDGLKPLLPVSVRSQIDMLVPRQCFSLNYDLNCDKLCADFQEDIEFHFSLGWTMLVNRFLGPKNSRRALMGYNDQVQRPIPLTPANPSMPPLPQGSLTQEEFMVSMVTGLASLTSRTSMGILVVGGVVWKAVGWRLIALSFGLYGLLYVYERLTWTTKAKERAFKRQFVEHASEKLQLVISYTGSNCSHQVQQELSGTFAHLCQQVDVTRENLEQEIAAMNKKIEVLDSLQSKAKLLRNKAGWLDSELNMFTHQYLQPSR [MFN2] | -0.174 | 50.8 °C | 51.3 °C | -0.043 | 1.32 | 0.83 |
| MSLLGDPLQALPPSAAPTGPLLAPPAGATLNRLREPLLRRLSELLDQAPEGRGWRRLAELAGSRGRLRLSCLDLEQCSLKVLEPEGSPSLCLLKLMGEKGCTVTELSDFLQAMEHTEVLQLLSPPGIKITVNPESKAVLAGQFVKLCCRATGHPFVQYQWFKMNKEIPNGNTSELIFNAVHVKDAGFYVCRVNNNFTFEFSQWSQLDVCDIPESFQRSVDGVSESKLQICVEPTSQKLMPGSTLVLQCVAVGSPIPHYQWFKNELPLTHETKKLYMVPYVDLEHQGTYWCHVYNDRDSQDSKKVEIIIGRTDEAVECTEDELNNLGHPDNKEQTTDQPLAKDKVALLIGNMNYREHPKLKAPLVDVYELTNLLRQLDFKVVSLLDLTEYEMRNAVDEFLLLLDKGVYGLLYYAGHGYENFGNSFMVPVDAPNPYRSENCLCVQNILKLMQEKETGLNVFLLDMCRKRNDYDDTIPILDALKVTANIVFGYATCQGAEAFEIQHSGLANGIFMKFLKDRLLEDKKITVLLDEVAEDMGKCHLTKGKQALEIRSSLSEKRALTDPIQGTEYSAESLVRNLQWAKAHELPESMCLKFDCGVQIQLGFAAEFSNVMIIYTSIVYKPPEIIMCDAYVTDFPLDLDIDPKDANKGTPEETGSYLVSKDLPKHCLYTRLSSLQKLKEHLVFTVCLSYQYSGLEDTVEDKQEVNVGKPLIAKLDMHRGLGRKTCFQTCLMSNGPYQSSAATSGGAGHYHSLQDPFHGVYHSHPGNPSNVTPADSCHCSRTPDAFISSFAHHASCHFSRSNVPVETTDEIPFSFSDRLRISEK [MALT1] | -0.00137 | 49 °C | 49.4 °C | -0.158 | 0.111 | 0.543 |
| MSLLLLLLLVSYYVGTLGTHTEIKRVAEEKVTLPCHHQLGLPEKDTLDIEWLLTDNEGNQKVVITYSSRHVYNNLTEEQKGRVAFASNFLAGDASLQIEPLKPSDEGRYTCKVKNSGRYVWSHVILKVLVRPSKPKCELEGELTEGSDLTLQCESSSGTEPIVYYWQRIREKEGEDERLPPKSRIDYNHPGRVLLQNLTMSYSGLYQCTAGNEAGKESCVVRVTVQYVQSIGMVAGAVTGIVAGALLIFLLVWLLIRRKDKERYEEEERPNEIREDAEAPKARLVKPSSSSSGSRSSRSGSSSTRSTANSASRSQRTLSTDAAPQPGLATQAYSLVGPEVRGSEPKKVHHANLTKAETTPSMIPSQSRAFQTV [CLMP] | 0.0444 | 55 °C | 55.4 °C | -0.0674 | -1.13 | -0.751 |
| MSLMVSAGRGLGAVWSPTHVQVTVLQARGLRAKGPGGTSDAYAVIQVGKEKYATSVSERSLGAPVWREEATFELPSLLSSGPAAAATLQLTVLHRALLGLDKFLGRAEVDLRDLHRDQGRRKTQWYKLKSKPGKKDKERGEIEVDIQFMRNNMTASMFDLSMKDKSRNPFGKLKDKIKGKNKDSGSDTASAIIPSTTPSVDSDDESVVKDKKKKSKIKTLLSKSNLQKTPLSQSMSVLPTSKPEKVLLRPGDFQSQWDEDDNEDESSSASDVMSHKRTASTDLKQLNQVNFTLPKKEGLSFLGGLRSKNDVLSRSNVCINGNHVYLEQPEAKGEIKDSSPSSSPSPKGFRKKHLFSSTENLAAGSWKEPAEGGGLSSDRQLSESSTKDSLKSMTLPSYRPAPLVSGDLRENMAPANSEATKEAKESKKPESRRSSLLSLMTGKKDVAKGSEGENPLTVPGREKEGMLMGVKPGEDASGPAEDLVRRSEKDTAAVVSRQGSSLNLFEDVQITEPEAEPESKSEPRPPISSPRAPQTRAVKPRLEVSPEAQPTARLPSPTDSPSSLPPLPSSSGQASVPSELGHGADTQSSESPSVFSSLSSPIAAPISTSTPIESWPLVDRGQAKSEGPPLLPKAELQTESLTPVPNSGSSALGSLFKQPSFPANKGTEDSLMGRTRETGTEKNTSSLELEESLPEQPETGRQEEELPRFPCKKQDYSPSSGEAQEVPFALSLSSDGAVSPVGELAAGGDRDLESQAGSLVESKARDAAEEVAPPLPMGASVPSIDSMMRKLEEMGLNLRKDQKKTKKRVSFSEQLFTEEAVAGAALLVEGHSSCPQELNPAWSVAGNASDGEPPESPHAEDSERESVTTPGPATCGAPASPADHLLLPSQEESFSEVPMSEASSAKDTPLFRMEGEDALVTQYQSKASDHEGLLSDPLSDLQLVSDFKSPIMADLNLSLPSIPEVASDDERIDQVEDDGDQVEDDGETAKSSTLDIGALSLGLVVPCPERGKGPSGEADRLVLGEGLCDFRLQAPQASVTAPSEQTTEFGIHKPHLGKSSSLDKQLPGPSGGEEEKPMGNGSPSPPPGTSLDNPVPSPSPSEIFPVTHSFPSSAHSDTHHTSTAESQKKATAEGSAGRVENFGKRKPLLQAWVSPSETHPVSAQPGAGTGSAKHRLHPVKPMNAMATKVANCSLGTATIISENLNNEVMMKKYSPSDPAFAYAQLTHDELIQLVLKQKETISKKEFQVRELEDYIDNLLVRVMEETPNILRIPTQVGKKAGKM [RAB11FIP1] | 0.306 | 51 °C | 50.1 °C | -0.196 | 0.112 | 0.383 |
| MSLQSAQYLRQAEVLKADMTDSKLGPAEVWTSRQALQDLYQKMLVTDLEYALDKKVEQDLWNHAFKNQITTLQGQAKNRANPNRSEVQANLSLFLEAASGFYTQLLQELCTVFNVDLPCRVKSSQLGIISNKQTHTSAIVKPQSSSCSYICQHCLVHLGDIARYRNQTSQAESYYRHAAQLVPSNGQPYNQLAILASSKGDHLTTIFYYCRSIAVKFPFPAASTNLQKALSKALESRDEVKTKWGVSDFIKAFIKFHGHVYLSKSLEKLSPLREKLEEQFKRLLFQKAFNSQQLVHVTVINLFQLHHLRDFSNETEQHTYSQDEQLCWTQLLALFMSFLGILCKCPLQNESQEESYNAYPLPAVKVSMDWLRLRPRVFQEAVVDERQYIWPWLISLLNSFHPHEEDLSSISATPLPEEFELQGFLALRPSFRNLDFSKGHQGITGDKEGQQRRIRQQRLISIGKWIADNQPRLIQCENEVGKLLFITEIPELILEDPSEAKENLILQETSVIESLAADGSPGLKSVLSTSRNLSNNCDTGEKPVVTFKENIKTREVNRDQGRSFPPKEVRRDYSKGITVTKNDGKKDNNKRKTETKKCTLEKLQETGKQNVAVQVKSQTELRKTPVSEARKTPVTQTPTQASNSQFIPIHHPGAFPPLPSRPGFPPPTYVIPPPVAFSMGSGYTFPAGVSVPGTFLQPTAHSPAGNQVQAGKQSHIPYSQQRPSGPGPMNQGPQQSQPPSQQPLTSLPAQPTAQSTSQLQVQALTQQQQSPTKAVPALGKSPPHHSGFQQYQQADASKQLWNPPQVQGPLGKIMPVKQPYYLQTQDPIKLFEPSLQPPVMQQQPLEKKMKPFPMEPYNHNPSEVKVPEFYWDSSYSMADNRSVMAQQANIDRRGKRSPGVFRPEQDPVPRMPFEKSLLEKPSELMSHSSSFLSLTGFSLNQERYPNNSMFNEVYGKNLTSSSKAELSPSMAPQETSLYSLFEGTPWSPSLPASSDHSTPASQSPHSSNPSSLPSSPPTHNHNSVPFSNFGPIGTPDNRDRRTADRWKTDKPAMGGFGIDYLSATSSSESSWHQASTPSGTWTGHGPSMEDSSAVLMESLKSIWSSSMMHPGPSALEQLLMQQKQKQQRGQGTMNPPH [SMG7] | 0.0703 | 50.4 °C | 49.3 °C | -0.127 | 0.868 | 1.4 |
| MSLVAEAFVSQIAAAEPWPENATLYQQLKGEQILLSDNAASLAVQAFLQMCNLPIKVVCRANAEYMSPSGKVPFIHVGNQVVSELGPIVQFVKAKGHSLSDGLEEVQKAEMKAYMELVNNMLLTAELYLQWCDEATVGEITHARYGSPYPWPLNHILAYQKQWEVKRKMKAIGWGKKTLDQVLEDVDQCCQALSQRLGTQPYFFNKQPTELDALVFGHLYTILTTQLTNDELSEKVKNYSNLLAFCRRIEQHYFEDRGKGRLS [MTX2] | 0.186 | 51.4 °C | 52.2 °C | 0.0491 | -0.339 | -0.187 |
| MSMEDPFFVVKGEVQKAVNTAQGLFQRWTELLQDPSTATREEIDWTTNELRNNLRSIEWDLEDLDETISIVEANPRKFNLDATELSIRKAFITSTRQVVRDMKDQMSTSSVQALAERKNRQALLGDSGSQNWSTGTTDKYGRLDRELQRANSHFIEEQQAQQQLIVEQQDEQLELVSGSIGVLKNMSQRIGGELEEQAVMLEDFSHELESTQSRLDNVMKKLAKVSHMTSDRRQWCAIAILFAVLLVVLILFLVL [STX6] | -0.167 | 53.5 °C | 52.9 °C | -0.118 | 1.56 | -0.616 |
